Measured values published in paper PMC4909229, “Characterization of Staphylococcus aureus Primosomal DnaD Protein: Highly Conserved C-Terminal Region Is Crucial for ssDNA and PriA Helicase Binding but Not for DnaA Protein-Binding and Self-Tetrameri”.
Values joined by “and” are separate entries in the source; they are usually repeats but may differ in a detail not shown here. Identical values can stand only once.

Legend:
[1] = molecular target: Staphylococcus aureus PriA helicase (SaPriA) (Staphylococcus aureus subsp. aureus ED98)
[2] = molecular target: Staphylococcus aureus PriA helicase (SaPriA) (Staphylococcus aureus subsp. aureus ED98); remark: listed apart in the source
[3] = molecular target: Staphylococcus aureus PriA helicase (SaPriA) (Staphylococcus aureus subsp. aureus ED98); remark: listed apart in the source
SaDnaD1-195 = molecular target: T1, SaDnaD1-195 (Staphylococcus aureus subsp. aureus ED98, UniProt Q9EUT0 1-195, del196-228); assay: SEC; Superdex 200 HR 10/30, Buffer B (20 mM HEPES, 100 mM NaCl, pH 7.0), purified protein 2 mg/mL (methods; 4 mg/mL in the results for SaDnaD), calibrated with standard proteins; oligomer size from the estimated native mass
T1 sequence: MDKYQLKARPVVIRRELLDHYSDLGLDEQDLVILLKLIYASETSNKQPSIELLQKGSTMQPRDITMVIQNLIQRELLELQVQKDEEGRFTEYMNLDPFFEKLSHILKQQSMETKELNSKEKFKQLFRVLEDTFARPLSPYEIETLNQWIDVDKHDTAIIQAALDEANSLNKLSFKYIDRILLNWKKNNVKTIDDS

[4] = molecular target: Staphylococcus aureus DnaA (SaDnaA) (Staphylococcus aureus subsp. aureus ED98); assay: SPR; SaPriA or SaDnaA immobilised on CM5 chips, Biacore T200, 293 K, 40 mM Tris, 200 mM NaCl, 0.05% Tween-20, pH 8.0; SaDnaD solutions 7.6-250 nM as analyte; 1:1 (Langmuir) model
SaDnaD1-200 = molecular target: T2, SaDnaD1-200 (Staphylococcus aureus subsp. aureus ED98, UniProt Q9EUT0 1-200, del201-228); assay: SEC; Superdex 200 HR 10/30, Buffer B (20 mM HEPES, 100 mM NaCl, pH 7.0), purified protein 2 mg/mL (methods; 4 mg/mL in the results for SaDnaD), calibrated with standard proteins; oligomer size from the estimated native mass
T2 sequence: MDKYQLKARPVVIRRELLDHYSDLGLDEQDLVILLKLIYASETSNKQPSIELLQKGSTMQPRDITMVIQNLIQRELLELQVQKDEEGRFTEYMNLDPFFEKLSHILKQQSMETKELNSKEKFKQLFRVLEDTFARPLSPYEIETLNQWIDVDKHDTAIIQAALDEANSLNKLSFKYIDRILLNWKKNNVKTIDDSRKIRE

[5] = molecular target: Staphylococcus aureus PriA helicase (SaPriA) (Staphylococcus aureus subsp. aureus ED98); assay: SPR; SaPriA or SaDnaA immobilised on CM5 chips, Biacore T200, 293 K, 40 mM Tris, 200 mM NaCl, 0.05% Tween-20, pH 8.0; SaDnaD solutions 7.6-250 nM as analyte; 1:1 (Langmuir) model
SaDnaD1-204 = molecular target: T3, SaDnaD1-204 (Staphylococcus aureus subsp. aureus ED98, UniProt Q9EUT0 1-204, del205-228); assay: SEC; Superdex 200 HR 10/30, Buffer B (20 mM HEPES, 100 mM NaCl, pH 7.0), purified protein 2 mg/mL (methods; 4 mg/mL in the results for SaDnaD), calibrated with standard proteins; oligomer size from the estimated native mass
T3 sequence: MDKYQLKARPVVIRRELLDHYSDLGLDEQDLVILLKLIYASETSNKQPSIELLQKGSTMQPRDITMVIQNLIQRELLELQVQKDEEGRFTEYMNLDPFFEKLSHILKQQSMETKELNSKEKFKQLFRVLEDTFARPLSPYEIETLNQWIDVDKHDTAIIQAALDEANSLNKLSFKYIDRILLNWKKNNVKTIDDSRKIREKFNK

[6] = molecular target: Staphylococcus aureus DnaD (SaDnaD) (Staphylococcus aureus subsp. aureus ED98) (UniProt Q9EUT0); assay: as above
SaDnaD [7] = molecular target: T4, SaDnaD (Staphylococcus aureus subsp. aureus ED98, UniProt Q9EUT0 1-228); assay: EMSA; EMSA: 20 mM Tris-HCl pH 8.0, 100 mM NaCl, 25 C, 30 min, 1.7 nM DNA, gel at 4 C in TBE; fluorescence: 20 mM Tris-HCl pH 8.0, 200 or 500 mM NaCl, 0.1 uM tetramer; conditions: protein: recombinant; tags: C-terminal His tag (pET21e); chain copies: 4; label: 5'-32P
T4 sequence: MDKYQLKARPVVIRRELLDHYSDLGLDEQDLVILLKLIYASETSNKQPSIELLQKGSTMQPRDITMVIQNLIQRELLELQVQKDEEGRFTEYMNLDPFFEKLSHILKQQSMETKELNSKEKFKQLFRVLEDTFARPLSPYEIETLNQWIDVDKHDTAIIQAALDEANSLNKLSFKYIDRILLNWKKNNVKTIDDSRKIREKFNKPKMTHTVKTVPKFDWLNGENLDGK

SaDnaD [8] = molecular target: T4, SaDnaD; assay: EMSA; two complexes summed; EMSA: 20 mM Tris-HCl pH 8.0, 100 mM NaCl, 25 C, 30 min, 1.7 nM DNA, gel at 4 C in TBE; fluorescence: 20 mM Tris-HCl pH 8.0, 200 or 500 mM NaCl, 0.1 uM tetramer; conditions: protein: recombinant, tags: C-terminal His tag (pET21e), chain copies: 4

In the case of “SaDnaD1-195 (from UniProt Q9EUT0 1-195) (domain or fragment)”, the SaPriA ATPase activity with His-tagged SaDnaD1-195 (10 μM), stimulation over SaPriA alone [1] is reported as 2 fold, the Fold of Vmax/Km of SaPriA ATPase with tag-free SaDnaD1-195 (10 μM) against PriA alone [2] is reported as 1.2 fold and the SaPriA ATPase activity with tag-free SaDnaD1-195 (10 μM), stimulation over SaPriA alone [3] is reported as 2 fold. For the same molecule, the stoichiometry N (SaDnaD1-195) was 4 and the Kd [4] was 150 nM.

Molecule “SaDnaD1-200 (from UniProt Q9EUT0 1-200) (domain or fragment)” has a stoichiometry N (SaDnaD1-200) of 4 and a Kd [5] of 26 nM.

With “SaDnaD1-204 (from UniProt Q9EUT0 1-204) (domain or fragment)” the stoichiometry N (SaDnaD1-204) was 4 and the Kd [5] was 11 nM.

In the case of “Staphylococcus aureus DnaD (SaDnaD) (from UniProt Q9EUT0 1-228) (natural protein)”, the SaPriA ATPase activity with His-tagged SaDnaD (10 μM), stimulation over SaPriA alone [1] is reported as 12 fold, the Fold of Vmax/Km of SaPriA ATPase with tag-free SaDnaD (10 μM) against PriA alone [2] is reported as 5.3 fold and the SaPriA ATPase activity with tag-free SaDnaD (10 μM), stimulation over SaPriA alone [3] is reported as 11 fold and 12 fold. It also gave a stoichiometry N [6] of 4, a Kd [5] of 2 nM and a Kd [4] of 17 nM.

“tag-free SaDnaDY176A mutant protein (from UniProt Q9EUT0 1-228) (natural protein)” showed a Fold of Vmax/Km of SaPriA ATPase with tag-free SaDnaDY176A (10 μM) against PriA alone [2] of 5.1 fold.

In the case of TTTTTTTTTTTTTTTTTTTTTTTTTTTTTTTTTTT (ssDNA) [dT35], the “apparent K (half saturation)” value (SaDnaD [7]) is reported as 2200 ± 300 nM.

B1: dT65 (ssDNA)
DNA: TTTTTTTTTTTTTTTTTTTTTTTTTTTTTTTTTTTTTTTTTTTTTTTTTTTTTTTTTTTTTTTTT
In the case of B1, the “apparent K (half saturation)” value (SaDnaD [8]; label: 5'-32P (EMSA), unlabeled in fluorescence titration) is reported as 500 ± 100 nM.

TTTTTTTTTTTTTTTTTTTTTTTTT (ssDNA) [dT25] was tested, and the “apparent K (half saturation)” value (SaDnaD [7]) was 4700 ± 800 nM.

B2: dT60 (ssDNA)
DNA: TTTTTTTTTTTTTTTTTTTTTTTTTTTTTTTTTTTTTTTTTTTTTTTTTTTTTTTTTTTT
With B2 the “apparent K (half saturation)” value (SaDnaD [8]; label: 5'-32P) was 1500 ± 100 nM.

For TTTTTTTTTTTTTTTTTTTTTTTTTTTTTTTTTTTTTTTTTTTTT (ssDNA) [dT45], the “apparent K (half saturation)” value (SaDnaD [7]) was 2000 ± 200 nM.

B3: dT55 (ssDNA)
DNA: TTTTTTTTTTTTTTTTTTTTTTTTTTTTTTTTTTTTTTTTTTTTTTTTTTTTTTT
With B3 the “apparent K (half saturation)” value (SaDnaD [7]) was 1400 ± 100 nM.
